Assay results from patent US20070258954A1.

Target: fluorogenic OmpT peptide substrate (FIG. 10)
Assay: cell-based or functional assay

OmpT protease of E. coli, expressed from multicopy plasmid pML19 in UT5600 cells (from UniProt P09169 21-317) (enzyme)
mean fluorescence intensity of cells by FACS after 10 min exposure to the substrate: 30 fold
